Assay results published in IntAct's records for PubMed 26224785.

B1: Microsomal triglyceride transfer protein large subunit (Homo sapiens), P55157 (parent)
chain: MILLAVLFLCFISSYSASVKGHTTGLSLNNDRLYKLTYSTEVLLDRGKGKLQDSVGYRISSNVDVALLWRNPDGDDDQLIQITMKDVNVENVNQQRGEKSIFKGKSPSKIMGKENLEALQRPTLLHLIHGKVKEFYSYQNEAVAIENIKRGLASLFQTQLSSGTTNEVDISGNCKVTYQAHQDKVIKIKALDSCKIARSGFTTPNQVLGVSSKATSVTTYKIEDSFVIAVLAEETHNFGLNFLQTIKGKIVSKQKLELKTTEAGPRLMSGKQAAAIIKAVDSKYTAIPIVGQVFQSHCKGCPSLSELWRSTRKYLQPDNLSKAEAVRNFLAFIQHLRTAKKEEILQILKMENKEVLPQLVDAVTSAQTSDSLEAILDFLDFKSDSSIILQERFLYACGFASHPNEELLRALISKFKGSIGSSDIRETVMIITGTLVRKLCQNEGCKLKAVVEAKKLILGGLEKAEKKEDTRMYLLALKNALLPEGIPSLLKYAEAGEGPISHLATTALQRYDLPFITDEVKKTLNRIYHQNRKVHEKTVRTAAAAIILNNNPSYMDVKNILLSIGELPQEMNKYMLAIVQDILRFEMPASKIVRRVLKEMVAHNYDRFSRSGSSSAYTGYIERSPRSASTYSLDILYSGSGILRRSNLNIFQYIGKAGLHGSQVVIEAQGLEALIAATPDEGEENLDSYAGMSAILFDVQLRPVTFFNGYSDLMSKMLSASGDPISVVKGLILLIDHSQELQLQSGLKANIEVQGGLAIDISGAMEFSLWYRESKTRVKNRVTVVITTDITVDSSFVKAGLETSTETEAGLEFISTVQFSQYPFLVCMQMDKDEAPFRQFEKKYERLSTGRGYVSQKRKESVLAGCEFPLHQENSEMCKVVFAPQPDSTSSGWF
partner: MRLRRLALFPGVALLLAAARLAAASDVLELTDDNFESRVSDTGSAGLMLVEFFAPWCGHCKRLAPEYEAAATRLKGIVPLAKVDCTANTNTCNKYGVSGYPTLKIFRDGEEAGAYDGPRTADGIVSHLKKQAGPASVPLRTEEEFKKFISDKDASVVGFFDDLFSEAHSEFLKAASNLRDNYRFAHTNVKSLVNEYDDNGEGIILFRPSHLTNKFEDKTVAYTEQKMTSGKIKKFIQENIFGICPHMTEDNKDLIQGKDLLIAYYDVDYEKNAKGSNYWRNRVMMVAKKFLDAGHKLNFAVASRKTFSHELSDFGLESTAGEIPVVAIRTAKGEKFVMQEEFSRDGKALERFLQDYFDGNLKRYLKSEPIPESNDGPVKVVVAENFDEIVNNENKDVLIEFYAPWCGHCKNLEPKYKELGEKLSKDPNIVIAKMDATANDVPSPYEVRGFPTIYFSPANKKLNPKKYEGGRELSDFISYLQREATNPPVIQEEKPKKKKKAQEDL
B2: Microsomal triglyceride transfer protein large subunit (Homo sapiens), P55157 (parent)
chain: B1 chain

Variants of: B1
Settings: with pdia3_chlae PDIA3, Q4VIT4

Variant | effect of a mutation on the interaction
D169V | disrupting interaction strength
D169E | with no effect
K187L | decreasing interaction strength

More lines, now with the values ahead:

effect of a mutation on the interaction | Variant
with no effect | K189R
decreasing interaction strength | K189L
with no effect | K187R

Variants of: B1
Settings: with pdia3_chlae PDIA3, Q4VIT4
Remark: another data set of the same source

effect of a mutation on the interaction | Variant
with no effect | K189L
with no effect | D169V
with no effect | K187L

Variants of: B2
Settings: with apob_human APOB

Variant | effect of a mutation on the interaction
K187L | with no effect
D169V | with no effect
D169E | with no effect

The next lines start with the values.

effect of a mutation on the interaction | Variant
with no effect | K187R
with no effect | K189L
with no effect | K189R
